# Data reported in the supplement of paper PMC10567573.
# B1: YPEL3 (parent)
# chain: SKPKTFQAYLDDCHRRYSCAHCRA
# B2: RAB22A (parent)
# chain: FVEDSFDPNINPTIGASFMTKTVQ
# Variants of: B1
# Assay: protein stability index of a GFP-peptide fusion (GPS, HEK-293T) (PSI 1-6); higher = more stable
# Conditions: c terminus: a fixed tail appended
# 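Also: lentivirally expressed fusions sorted by FACS into six bins by GFP to DsRed ratio, PSI derived from sequencing read proportions per bin multiplied by bin number.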
row,Variant,protein stability index
1,SKPKTFQAYLDDCHRRYSRAHCRA,2.04
2,SKPKTFQAYLDDCHRRYSWAHCRA,1.66
3,SKPKTFQAYLDDCHRRYSVAHCRA,2.41
4,SKPKTFQAYLDDCHRRYSSAHCRA,2.87
5,SKPKTFQAYLDDCHRRYSQAHCRA,2.53
6,SKPKTFQAYLDDCHRRYSYAHCRA,2.44
7,SKPKTFQAYLDDCHRRYSTAHCRA,2.44
8,SKPKTFQAYLDDCHRRYSCAHGRA,2.75
9,SKPKTFQAYLDDCHRRYSCAHRRA,2.63
10,SKPKTFQAYLDDCHRRYSCAHSRA,1.86
11,SKPKTFQAYLDDCHRRYSCAHTRA,2.73
12,SKPKTFQAYLDDCHRRYSCAHDRA,2.94
13,SKPKTFQAYLDDCHRRYSCAHQRA,3.22
14,SKPKTFQAYLDDCHRRYSCAHPRA,2.61
15,SKPKTFQAYLDDCHRRYSCAHLRA,2.37
16,SKPKTFQAYLDDCHRRYSCAHKRA,2.86
17,SKPKTFQAYLDDCHRRYSCAHWRA,1.77
18,SKPKTFQAYLDDCHRRYSCAHNRA,2.45
19,SKPKTFQAYLDDCHRRYSCAHFRA,2.32
20,SKPKTFQAYLDDCHRRYSCAHMRA,1.98
21,SKPKTFQAYLDDCHRRYSCAHERA,2.34
22,SKPKTFQAYLDDCHRRYSCAHYRA,2.17
23,SKPKTFQAYLDDCHRRYSCAHIRA,2.69
24,SKPKTFQAYLDDCHRRYSCAHHRA,1.82
25,SKPKTFQAYLDDCHRRYSCAHARA,2.04

row,Variant,protein stability index
1,SKPKTFQAYLDDCHRRYSCAHVRA,2.64
2,SKPKTFQAYLDDCHRRYSCANCRA,1.57
3,SKPKTFQAYLDDCHRRYSCAMCRA,1.18
4,SKPKTFQAYLDDCHRRYSCAQCRA,2
5,SKPKTFQAYLDDCHRRYSCADCRA,2.18
6,SKPKTFQAYLDDCHRRYSCACCRA,1.83
7,SKPKTFQAYLDDCHRRYSCAYCRA,1.48
8,SKPKTFQAYLDDCHRRYSCATCRA,2.34
9,SKPKTFQAYLDDCHRRYSCASCRA,2.19
10,SKPKTFQAYLDDCHRRYSCALCRA,1.74
11,SKPKTFQAYLDDCHRRYSCAWCRA,1.65
12,SKPKTFQAYLDDCHRRYSCAACRA,2.06
13,SKPKTFQAYLDDCHRRYSCARCRA,3.32
14,SKPKTFQAYLDDCHRRYSCAVCRA,1.79
15,SKPKTFQAYLDDCHRRYSCAKCRA,2.37
16,SKPKTFQAYLDDCHRRYSCAFCRA,1.52
17,SKPKTFQAYLDDCHRRYSCAICRA,2.52
18,SKPKTFQAYLDDCHRRYSCAPCRA,1.9
19,SKPKTFQAYLDDCHRRYSCAGCRA,1.28
20,SKPKTFQAYLDDCHRRYSCCHCRA,1.31
21,SKPKTFQAYLDDCHRRYSCDHCRA,1.1
22,SKPKTFQAYLDDCHRRYSCTHCRA,2.29
23,SKPKTFQAYLDDCHRRYSCNHCRA,2.92
24,SKPKTFQAYLDDCHRRYSCSHCRA,1.46
25,SKPKTFQAYLDDCHRRYSCHHCRA,2.04

row,Variant,protein stability index
1,SKPKTFQAYLDDCHRRYSCEHCRA,1.46
2,SKPKTFQAYLDDCHRRYSCPHCRA,1.92
3,SKPKTFQAYLDDCHRRYSCQHCRA,1.71
4,SKPKTFQAYLDDCHRRYSCKHCRA,2.95
5,SKPKTFQAYLDDCHRRYSCFHCRA,2.22
6,SKPKTFQAYLDDCHRRYSCRHCRA,1.72
7,SKPKTFQAYLDDCHRRYSCYHCRA,2.16
8,SKPKTFQAYLDDCHRRYSCLHCRA,1.64
9,SKPKTFQAYLDDCHRRYSCVHCRA,2.02
10,SKPKTFQAYLDDCHRRYSCIHCRA,1.89
11,SKPKTFQAYLDDCHRRYSCWHCRA,3.14
12,SKPKTFQAYLDDCHRRYSCAHCKA,2.03
13,SKPKTFQAYLDDCHRRYSCAHCAA,3.07
14,SKPKTFQAYLDDCHRRYSCAHCSA,3.52
15,SKPKTFQAYLDDCHRRYSCAHCFA,2.61
16,SKPKTFQAYLDDCHRRYSCAHCMA,2
17,SKPKTFQAYLDDCHRRYSCAHCVA,3.34
18,SKPKTFQAYLDDCHRRYSCAHCHA,2.59
19,SKPKTFQAYLDDCHRRYSCAHCWA,2.08
20,SKPKTFQAYLDDCHRRYSCAHCNA,2.91
21,SKPKTFQAYLDDCHRRYSCAHCGA,1.39
22,SKPKTFQAYLDDCHRRYSCAHCPA,2.11
23,SKPKTFQAYLDDCHRRYSCAHCQA,1.86
24,SKPKTFQAYLDDCHRRYSCAHCLA,2.37
25,SKPKTFQAYLDDCHRRYSCAHCCA,1.24

row,Variant,protein stability index
1,SKPKTFQAYLDDCHRRYSCAHCEA,2.09
2,SKPKTFQAYLDDCHRRYSCAHCDA,2.18
3,SKPKTFQAYLDDCHRRYSCAHCIA,3.07
4,SKPKTFQAYLDDCHRRYSCAHCRI,2
5,SKPKTFQAYLDDCHRRYSCAHCRC,1.83
6,SKPKTFQAYLDDCHRRYSCAHCRH,1.85
7,SKPKTFQAYLDDCHRRYSCAHCRD,1.73
8,SKPKTFQAYLDDCHRRYSCAHCRF,2.59
9,SKPKTFQAYLDDCHRRYSCAHCRS,1.54
10,SKPKTFQAYLDDCHRRYSCAHCRK,3.42
11,SKPKTFQAYLDDCHRRYSCAHCRN,2
12,SKPKTFQAYLDDCHRRYSCAHCRG,2.32
13,SKPKTFQAYLDDCHRRYSCAHCRE,1.71
14,SKPKTFQAYLDDCHRRYSCAHCRY,2.86
15,SKPKTFQAYLDDCHRRYSCAHCRW,2.39
16,SKPKTFQAYLDDCHRRYSCAHCRM,2.07
17,SKPKTFQAYLDDCHRRYSCAHCRV,1.84
18,SKPKTFQAYLDDCHRRYSCAHCRL,1.87
19,SKPKTFQAYLDDCHRRYSCAHCRR,1.71
20,SKPKTFQAYLDDCHRRYSCAHCRP,2.24
21,SKPKTFQAYLDDCHRRYSCAHCRQ,2.59
22,SKPKTFQAYLDDCHRRYSCAHCRT,1.54

# Variants of: B2
# Assay: as above
# Conditions: c terminus: a fixed tail appended
row,Variant,protein stability index
1,FSEDSFDPNINPTIGASFMTKTVQ,3.99
2,FLEDSFDPNINPTIGASFMTKTVQ,3.29
3,FGEDSFDPNINPTIGASFMTKTVQ,3.77
4,FCEDSFDPNINPTIGASFMTKTVQ,3.14
5,FDEDSFDPNINPTIGASFMTKTVQ,4.03
6,FPEDSFDPNINPTIGASFMTKTVQ,4.33
7,FAEDSFDPNINPTIGASFMTKTVQ,3.54
8,FMEDSFDPNINPTIGASFMTKTVQ,3.62
9,FTEDSFDPNINPTIGASFMTKTVQ,3.68
10,FEEDSFDPNINPTIGASFMTKTVQ,3.95
11,FWEDSFDPNINPTIGASFMTKTVQ,2.51
12,FHEDSFDPNINPTIGASFMTKTVQ,3.61
13,FREDSFDPNINPTIGASFMTKTVQ,3.48
14,FFEDSFDPNINPTIGASFMTKTVQ,2.89
15,FIEDSFDPNINPTIGASFMTKTVQ,2.81
16,FNEDSFDPNINPTIGASFMTKTVQ,3.62
17,FQEDSFDPNINPTIGASFMTKTVQ,3.8
18,FYEDSFDPNINPTIGASFMTKTVQ,3.19
19,FKEDSFDPNINPTIGASFMTKTVQ,3.69
20,FVEDIFDPNINPTIGASFMTKTVQ,2.18
21,FVEDAFDPNINPTIGASFMTKTVQ,2.16
22,FVEDPFDPNINPTIGASFMTKTVQ,1.96
23,FVEDNFDPNINPTIGASFMTKTVQ,2.64

row,Variant,protein stability index
1,FVEDGFDPNINPTIGASFMTKTVQ,2.08
2,FVEDLFDPNINPTIGASFMTKTVQ,1.97
3,FVEDRFDPNINPTIGASFMTKTVQ,1.93
4,FVEDMFDPNINPTIGASFMTKTVQ,1.99
5,FVEDFFDPNINPTIGASFMTKTVQ,2.92
6,FVEDDFDPNINPTIGASFMTKTVQ,3.27
7,FVEDEFDPNINPTIGASFMTKTVQ,3.63
8,FVEDQFDPNINPTIGASFMTKTVQ,2.65
9,FVEDHFDPNINPTIGASFMTKTVQ,1.74
10,FVEDCFDPNINPTIGASFMTKTVQ,2.03
11,FVEDKFDPNINPTIGASFMTKTVQ,2.1
12,FVWDSFDPNINPTIGASFMTKTVQ,1.72
13,FVRDSFDPNINPTIGASFMTKTVQ,2.54
14,FVYDSFDPNINPTIGASFMTKTVQ,1.75
15,FVTDSFDPNINPTIGASFMTKTVQ,1.57
16,FVDDSFDPNINPTIGASFMTKTVQ,2.49
17,FVNDSFDPNINPTIGASFMTKTVQ,1.96
18,FVGDSFDPNINPTIGASFMTKTVQ,1.49
19,FVKDSFDPNINPTIGASFMTKTVQ,1.88
20,FVIDSFDPNINPTIGASFMTKTVQ,1.88
21,FVADSFDPNINPTIGASFMTKTVQ,1.93
22,FVCDSFDPNINPTIGASFMTKTVQ,1.59
23,FVQDSFDPNINPTIGASFMTKTVQ,1.75

row,Variant,protein stability index
1,FVPDSFDPNINPTIGASFMTKTVQ,2.95
2,FVHDSFDPNINPTIGASFMTKTVQ,2.26
3,FVVDSFDPNINPTIGASFMTKTVQ,1.75
4,FVLDSFDPNINPTIGASFMTKTVQ,1.78
5,FVFDSFDPNINPTIGASFMTKTVQ,2.57
6,FVMDSFDPNINPTIGASFMTKTVQ,1.84
7,FVSDSFDPNINPTIGASFMTKTVQ,2.8
8,TVEDSFDPNINPTIGASFMTKTVQ,4.36
9,AVEDSFDPNINPTIGASFMTKTVQ,4.1
10,IVEDSFDPNINPTIGASFMTKTVQ,3.72
11,RVEDSFDPNINPTIGASFMTKTVQ,4.24
12,YVEDSFDPNINPTIGASFMTKTVQ,2.91
13,SVEDSFDPNINPTIGASFMTKTVQ,3.98
14,EVEDSFDPNINPTIGASFMTKTVQ,4.66
15,NVEDSFDPNINPTIGASFMTKTVQ,4.44
16,QVEDSFDPNINPTIGASFMTKTVQ,4.25
17,DVEDSFDPNINPTIGASFMTKTVQ,4.45
18,LVEDSFDPNINPTIGASFMTKTVQ,3.51
19,MVEDSFDPNINPTIGASFMTKTVQ,3.61
20,HVEDSFDPNINPTIGASFMTKTVQ,4.25
21,KVEDSFDPNINPTIGASFMTKTVQ,4.2
22,PVEDSFDPNINPTIGASFMTKTVQ,4.42
23,WVEDSFDPNINPTIGASFMTKTVQ,3.41

row,Variant,protein stability index
1,GVEDSFDPNINPTIGASFMTKTVQ,4.4
2,VVEDSFDPNINPTIGASFMTKTVQ,3.79
3,CVEDSFDPNINPTIGASFMTKTVQ,3.75
4,FVEPSFDPNINPTIGASFMTKTVQ,1.78
5,FVETSFDPNINPTIGASFMTKTVQ,1.89
6,FVEQSFDPNINPTIGASFMTKTVQ,1.82
7,FVENSFDPNINPTIGASFMTKTVQ,2.23
8,FVESSFDPNINPTIGASFMTKTVQ,1.65
9,FVECSFDPNINPTIGASFMTKTVQ,1.66
10,FVEWSFDPNINPTIGASFMTKTVQ,2.1
11,FVERSFDPNINPTIGASFMTKTVQ,1.7
12,FVEHSFDPNINPTIGASFMTKTVQ,1.36
13,FVEYSFDPNINPTIGASFMTKTVQ,2.98
14,FVELSFDPNINPTIGASFMTKTVQ,2.38
15,FVEFSFDPNINPTIGASFMTKTVQ,3.14
16,FVEMSFDPNINPTIGASFMTKTVQ,2.23
17,FVEVSFDPNINPTIGASFMTKTVQ,2.36
18,FVEKSFDPNINPTIGASFMTKTVQ,1.52
19,FVEASFDPNINPTIGASFMTKTVQ,1.63
20,FVEGSFDPNINPTIGASFMTKTVQ,2.02
21,FVEISFDPNINPTIGASFMTKTVQ,3.06
22,FVEESFDPNINPTIGASFMTKTVQ,2.52
